From the DeepSol protein solubility set

Assay: soluble on expression in E. coli; label from the status in PepcDB or PDB records

Sequence	soluble on expression in E. coli
MSLQIAQVLVDVPTMQTNRPYSYRIPTAWQSQVQPGMRVVVPFGRGKRRVQGFVLALDDVTNFDGELKPIDAVVDLAPVLNTEALALTKWLAASTFSFQITCAQTMLPAVMRAKYEKQLRTTATTPATIRTTLFGDQSMVPFDDVATTPAIVSQLLRLQAAGQVDVYYQVKNQARRKTQTAVKAALTNEALQAAVDQVRAGATQQLAVLQGLLTLNGEQLSQKAFCTRFDVTDGAIRTAVQKGWLKKVAVEVYRDPYATSDIKTTKALQLNDEQQVAVDQITQAVDQAATTTFLLEGVTGSGKTEVYLQSMAAALVQGKTALMLVPEISLTPQMVQRVKGRFGKAVAVLHSGLSSGEKYDEWRRIQRGEAQVVVGARSAVFAPLKNLGLIVMDEEHESTYKQDDAPRYHARQVALWRSRYHNCPVVLGSATPSLETRARAEKGVYQRLLLADRVNRRPLPKVSIIDMKKEMQQHAESNFSAPLLVALQDRLERHEQSVLMLNRRGYSSFVLCRDCGFVLKCPNCDISLTLHMDTHTMKCHYCGHEEAIPRNCPNCHSRQIRYYGTGTEKVEEELQDLLPDANIIRMDNDTTRKKGAHAKLLAQFGSGEADILIGTQMIAKGLDFPNVTLVGVLNADTALGLPDFRASERTFQLLTQVSGRAGRAEKSGHVYIQTFNPDHYAIRFAQHHDYEGFFKYEMQMRHRGGYPPYYFTVQITASDLDEGVAAKRMYQLLQWLRPRLAPSTILLGPTPKPIARVNRRYYYQIVIKYKQEPNLAQTLTTLLHETQAQQRQGLQIGIDVEPLHFMEGHHHHHH	soluble
MGSPLPFRLTCVWAGEPSMKKAIIFDCEFLCLEGSQRRFWCAAHDPDPVIAQIGAVKLGLEGGFPLLETYKVLISPVDRHGRRYAIDPFFTRLTGITEENIEAEGVPLQDALSSFDSFSEGAQCWSWGKDELNMMAISTYVAGIQPPMPACRFDNAVRLLLAAGMPVEDLAKTPSNSLADYYGVAHPPLQGHDALGDALSVSYALQHLLRSGKLKPEEFTLAA	soluble
MILLQLNHISKSFDGEDIFTDVDFEVKTGERIGIVGRNGAGKSTLMKIIAGVENYDSGNVSKIKNLKLGYLTQQMTLNSNATVFEEMSKPFEHIKRMESLIKEETDWLSKHANDYDSDTYKTHMSRYESLSNQFEQLEGYQYESKIKTVLYGLNFSEEDFNKPINDFSGGQKTRLSLAQMLLNEPDLLLLDEPTNHLDLETTKWLEDYLRYFKGAIVIISHDRYFLDKIVTQIYDVALGDVKRYVGNYEEFIQQRDLYYQKRMQEYESQQAEIKRLETFVEKNITRASTSGMAKSRRKILEKMERIDKPMLDAKSANIQFGFDRNTGNDVMHVKNLEIGYQTAITKPMSIEVSKGDHIAIIGPNGIGKSTLIKTIANQQKALNGDITFGANLQIGYYDQKQAEFKSSKTILDYVWDQYPLMNEKDIRAVLGRFLFVQDDVKKIINDLSGGEKARLLLALLMLQRDNVLILDEPTNHLDIDSKEMLEQALQHFEGTILFVSHDRYFINQLANKVFDLTIDGGKMYLGDYQYYIEKVEEAEALKAHQEEQSVNVQAHKKSMEQSSYHNQKEQRREQRKLERQISECENEIETLETTILQIDEQLTQPEVYNNPQKANELAIQKQDSEQKLEHAMSKWEELQQKL	not soluble
SPSKVQELSVYEINELDRHSPKILKNAFSLMFGLGDLVPFTNKLYTGDLKKRVGITAGLCVVIEHVPEKKGERFEATYSFYFGDYGHLSVQGPYLTYEDSFLAITGGAGIFEGAYGQVKLQQLVYPTKLFYTFYLKGLANDLPLELTGTPVPPSKDIEPAPEAKALEPSGVISNYTN	not soluble
MITQSSLLTYPLAGCLNRLANKSSQVKQRLQTHANETVCFRIDSLASLSVTITQDGHFTTAAKDTQAAVILDIAAELIPRIASGEMAAFDKIIICGDPELADTLLYMGKIFQAGIEENLSSVMGDVLARRATLTGQELVRWHLGSIRNLSRALGEFLSEEQPVTASRNRFHQLASEVESLQRRILRLEKRITALVPSFSSIAGNLPRTGR	not soluble
MENKSIAIFIDAENIPAKYAKSIFDIASDYGEVIIKRIYGDWTQKNIQGWREQIAEYSLIAMQQFNFAANKNSSDMYLITEIMSIFYEKNIDIFVIVSSDSDYTSLIQKLRENKKQVIGMGLEKSIKSYVNAFSEFFYLDKDESKKEDILSKDYLRALINITEQLIDEKGRAEYAQIRTNMNRKYSDFHPQNYGFKNFRALIQKFLPKMKKFEEEREKNIYFLVKKDYESYYLEHHHHHH	not soluble
MGSDKIHHHHHHMNVLIVSSSEGITLSLLRCLGLLNIKSHVISVWKSSGSSRFSRFCKNYISSFITESSQGAENIADVINDYCKQQKIDIIIPSGLLGTFLVALIKEKLSYSSVFPINDADKIYNLNNKWQFYHLLRQHNIPTPKTILIETPEQIKLLNLNFPVMVKPLDRGNGYGVKKIDSIVDLHGYISNASQINNLPILVQEYVFGYDILLNVLAENGKLIAWTINRRVPYFFEFFQDENILEIAHKIIDSCNYTGVANFDIRFDERSNSVKVIECNPRFWASFGASVSYGIDFVNLGILLAQGQKLPDNLKKEVTCTEPEKIPYPSPSQFLKGLLLAKYPFAAMKKISSDLAWQSILDPLPNIYEKIWNRLGIVNTHDGVMLNKLLSNSIRVKI	not soluble
MSLKEFYIGDQFYLDGEPFKILSGAIHYFRVHPDDWYHSLYNLKALGFNTVETYVPWNMHEPRKGEFCYEGILDIERFLKLAQELGLYAIVRPSPYICAEWEWGGLPAWLMKEELRVRSSDSVYLQHLDEYYVSLIPKLAKLQLAQGGNVLMFQVENEYGSYGEEKAYLRAVAGLMRKHGLTAPLFTSDGSWRATLRAGTLIEDDVFVTGNFGSKARENFANMTAFFNEHQKNWPLMCMEFWDGWFNRWGDEIIRREPEEMVDSVMECIELGSLNLYMFHGGTNFGFMNGCSARGQIDLPQVTSYDYDAILDEAGNPTKKFYILQQRLKEVYPELEYAEPLVKEAKAFSDVSLHDKVSLFATLENVSDCVKGFYPKNMEELDQSTGYILYRTELERDKTEAERFRVVDARDRIQIYADGKFVATQYQTEIGDDVELDFKDDKLTLDILVENMGRVNYGHKLTAPTQSKGIGRGAMADLHFIGHWETYPLHLESVEDLDFSKGWEEGQAAFYRYQFELDELADTYLDMTGFGKGVVFVNNVNIGRFWEKGPILYLYIPKGYLKKGANEIVVFETEGKYREKIHFSQRPVIKDLEGHHHHHH	soluble
MGSSHHHHHHSSGLVPRGSMAELSEEALLSVLPTIRVPKAGDRVHKDECAFSFDTPESEGGLYICMNTFLGFGKQYVERHFNKTGQRVYLHLRRTRRPKEEDPATGTGDPPRKKPTRLAIGVEGGFDLSEEKFELDEDVKIVILPDYLEIARDGLGGLPDIVRDRVTSAVEALLSADSASRKQEVQAWDGEVRQVSKHAFSLKQLDNPARIPPCGWKCSKCDMRENLWLNLTDGSILCGRRYFDGSGGNNHAVEHYRETGYPLAVKLGTITPDGADVYSYDEDDMVLDPSLAEHLSHFGIDMLKMQKTDKTMTELEIDMNQRIGEWELIQESGVPLKPLFGPGYTGIRNLGNSCYLNSVVQVLFSIPDFQRKYVDKLEKIFQNAPTDPTQDFSTQVAKLGHGLLSGEYSKPVPESGDGERVPEQKEVQDGIAPRMFKALIGKGHPEFSTNRQQDAQEFFLHLINMVERNCRSSENPNEVFRFLVEEKIKCLATEKVKYTQRVDYIMQLPVPMDAALNKEELLEYEEKKRQAEEEKMALPELVRAQVPFSSCLEAYGAPEQVDDFWSTALQAKSVAVKTTRFASFPDYLVIQIKKFTFGLDWVPKKLDVSIEMPEELDISQLRGTGLQPGEEELPDIAPPLVTPDEPKAPMLDESVIIQLVEMGFPMDACRKAVYYTGNSGAEAAMNWVMSHMDDPDFANPLILPGSSGPGSTSAAADPPPEDCVTTIVSMGFSRDQALKALRATNNSLERAVDWIFSHIDDLDAEAAMDISEGRSAADSISESVPVGPKVRDGPGKYQLFAFISHMGTSTMCGHYVCHIKKEGRWVIYNDQKVCASEKPPKDLGYIYFYQRVAS	soluble
MVEPQHNVMQMGGDFANNPNAQQFIDKMVNKHGFDRQQLQEILSQAKRLDSVLRLMDNQAPTTSVKPPSGPNGAWLRYRKKFITPDNVQNGVVFWNQYEDALNRAWQVYGVPPEIIVGIIGVETRWGRVMGKTRILDALATLSFNYPRRAEYFSGELETFLLMARDEQDDPLNLKGSFAGAMGYGQFMPSSYKQYAVDFSGDGHINLWDPVDAIGSVANYFKAHGWVKGDQVAVMANGQAPGLPNGFKTKYSISQLAAAGLTPQQPLGNHQQASLLRLDVGTGYQYWYGLPNFYTITRYNHSTHYAMAVWQLGQAVALARVQ	soluble
MGSDKIHHHHHHMSHIIKIFPSNIEFSGREDESILDAALSAGIHLEHSCKAGDCGICESDLLAGEVVDSKGNIFGQGDKILTCCCKPKTALELNAHFFPELAGQTKKIVPCKVNSAVLVSGDVMTLKLRTPPTAKIGFLPGQYINLHYKGVTRSYSIANSDESNGIELHVRNVPNGQMSSLIFGELQENTLMRIEGPCGTFFIRESDRPIIFLAGGTGFAPVKSMVEHLIQGKCRREIYIYWGMQYSKDFYSALPQQWSEQHDNVHYIPVVSGDDAEWGGRKGFVHHAVMDDFDSLEFFDIYACGSPVMIDASKKDFMMKNLSVEHFYSDAFTASNNIEDNL	not soluble
MGSDKIHHHHHHMKVQYSFEREFEELMSDLLSKYGYEMFQMDGLGDQLDVVKFTEDFVRRGIIESTIDANANVRVTNISTYFIEISKPHTYLYSLYRIWQKMKEMFGKGVADEFVEAQINGAVYLHDRHHAALMPYCFAYTLKPIVEKGLPFIKTIKSEPAKHLSTFIQHVIQFVMFASNQSSGAVGLPDFFVWMWYFVKKDLKEGIIPRDKLDWYIEQHFQILTYSLNQPIRTTQSPYTNFTYLDRNYIKAIFEGERYPDGSLITDHVEDIIALQKHYWEWVSRERERQMFTFPVLTASLLYKDGKFLDEDSARFINKINMKWQDTNWYISDSIDAVASCCRLTSSTQTLKKFSLSSEEEEKLKGRMNSIGGSDLNIGSFKVITVNLPRIALESGGDREKYLQILRHRVQLIKKALAAVREIIKERISEGLLPLYENGLMLLNRQYGTIGVTGVWESASIMGLTTEDIDGLKYTEEGEVFVDNVLDTIREEAEKGYHEYGFTFNIEQVPAEKAAVTLAQKDRFLFGEKQPFEIYSNQWVPLMANTDVLNRIRYSGKWDKKVSGGAILHINLGESFKTEEESFNMVKMIADMGVMYFAFNTKISVCEDGHAFYGERCPVCGKAKVDEYMRIVGYLVPVSAFNKERREIEYPRRQFYDSLTIRR	not soluble
MAHHHHHHMTVAKKCMVVLQHGSHGTHLDLACLSQYLKAKDPRLIVWESYKNEGMRTDDGVVPCGERLADNLIREIKELCSTPTQSGGDGGREKVVVQMSFVCHSMGGLIVREALPRVWDKVESQKGKLEIEWNMFCTIATPHGGVCQMASTLRYYLGRLISFFYSTSYHDMFLGSDVLTDRLLSPKHLSCLAAFKRRLLVSSINDILVPLMSSGFMLTPSQRGLPGDMLREEQKQLCAFNEREMYDKMRTITEIPKEEWPANKFLAERRIAKTLVQAVGNFDSVVVDLRSPRLEELYEDRKRRTTAWYGANKRSHQAMVCKPPFDTVEEAFGFVSHMVGDEVLATFQE	not soluble
